Self-cleavage data for 39 variants are collected here from the RNAGym collection of RNA variant scans (doi:10.7554/elife.90254).

To fix the notation:
B1: LINE1-full (parent)
chain: UACGUAGGUGGUUUUCCCCUGAUAGUGCUAAGGGGGCCUGGAAGUUUGGACUGGGCAGAGCUCAACACAGCGUGGCAAAGUGGCUGUGGCUAGACUGCCUCUCUGGAUUCCUCGUCACUCAGCAGGGCAUCUCUGAGAGAAAUGCC

The data set covers variants of B1. As to the kind of experiment: self-cleavage, relative activity (ratio to wild type); higher = more cleavage; in vitro, sequencing; the parent is a self-cleaving ribozyme.
Take UACGUAGGUGGUUUUCCCCUGAUAGUGCUAAGGGGGCCUGGAAGUUUGGACUGGGCAGAGCUCAACACAGCGUGGCAAAGUGGCUGUGGCAAGACUGCCCCUCUGGAUUCCUCGUCACUCAGCAGGGCAUCUCUGAGAGAAAUGCC [U91A U100C]: the self-cleavage worked out at 0.96.

With UACGUAGGUGGUUUUCCCCUGAUAGUGCUAAGGGGGCCUGGAAGUUUGGACUGGGCAGAGCUCAACACAGCGUGGCAAAGUGGCUGUGGCCAGACUGCCUCUCUGGAUUCCUCGUCACUCAGCAGGGCAUCUCUAAGAGAAAUGCC [U91C G135A], the self-cleavage worked out at 0.73.

For UACGUAGGUGGUUUUCCCCUGAUAGUGCUAAGGGGGCCUGGAAGUUUGGACUGGGCAGAGCUCAACACAGCGUGGCAAAGUGGCUGUGGCCAGACUGCCUCUCUGGAUUCCUCGUCACUCAGCAGGGCAUCUCUGGGAGAAAUGCC [U91C A136G], the self-cleavage amounted to 0.8.

Consider UACGUAGGUGGUUUUCCCCUGAUAGUGCUAAGGGGGCCUGGAAGUUUGGACUGGGCAGAGCUCAACACAGCGUGGCAAAGUGGCUGUGGCAAGACUGCCUCUCUGGAUUCCUCGUCACUCAGCAGGGCACCUCUGAGAGAAAUGCC [U91A U130C], for which the self-cleavage was determined as 0.79.

UACGUAGGUGGUUUUCCCCUGAUAGUGCUAAGGGGGCCUGGAAGUUUGGACUGGGCAGAGCUCAACACAGCGUGGCAAAGUGGCUGUGGCCAGACUGCCUCUCUGGAUUCCUAGUCACUCAGCAGGGCAUCUCUGAGAGAAAUGCC [U91C C113A]: the self-cleavage was determined as 0.82.

As for UACGUAGGUGGUUUUCCCCUGAUAGUGCUAAGGGGGCCUGGAAGUUUGGACUGGGCAGAGCUCAACACAGCGUGGCAAAGUGGCUGUGGCCAGACUGCCUCUCUGGAUUCCUCGUCACUCAGCAGGGCAUCUCUGAGAGAUAUGCC [U91C A141U], the self-cleavage amounted to 0.51.

In the case of UACGUAGGUGGUUUUCCCCUGAUAGUGCUAAGGGGGCCUGGAAGUUUGGACUGGGCAGAGCUCAACACAGCGUGGCAAAGUGGCUGUGGCCAGACUGCCUCUCUGGAUUCCUCGUCACUCGGCAGGGCAUCUCUGAGAGAAAUGCC [U91C A121G], the self-cleavage is 1.29.

UACGUAGGUGGUUUUCCCCUGAUAGUGCUAAGGGGGCCUGGAAGUUUGGACUGGGCAGAGCUCAACACAGCGUGGCAAAGUGGCUGUGGCAAGACUGCCUCCCUGGAUUCCUCGUCACUCAGCAGGGCAUCUCUGAGAGAAAUGCC [U91A U102C]: the self-cleavage is 0.22.

Regarding UACGUAGGUGGUUUUCCCCUGAUAGUGCUAAGGGGGCCUGGAAGUUUGGACUGGGCAGAGCUCAACACAGCGUGGCAAAGUGGCUGUGGCCAGACUGCCUCUCUGGAUUCCUCGUCACUCAACAGGGCAUCUCUGAGAGAAAUGCC [U91C G122A], the self-cleavage was 0.29.

In the case of UACGUAGGUGGUUUUCCCCUGAUAGUGCUAAGGGGGCCUGGAAGUUUGGACUGGGCAGAGCUCAACACAGCGUGGCAAAGUGGCUGUGGCAAGACUGCCUCUCUGGAUCCCUCGUCACUCAGCAGGGCAUCUCUGAGAGAAAUGCC [U91A U109C], the self-cleavage worked out at 0.65.

Regarding UACGUAGGUGGUUUUCCCCUGAUAGUGCUAAGGGGGCCUGGAAGUUUGGACUGGGCAGAGCUCAACACAGCGUGGCAAAGUGGCUGUGGCAAGACUGCCUCUCUGGAUUCCUCGUCACUCAGCAGGGCAUCUCUGAGAGAAAAGCC [U91A U143A], the self-cleavage turned out to be 0.52.

In the case of UACGUAGGUGGUUUUCCCCUGAUAGUGCUAAGGGGGCCUGGAAGUUUGGACUGGGCAGAGCUCAACACAGCGUGGCAAAGUGGCUGUGGCCAGACUGCCUCUCUGGAUUCCUCGUCACUCAGCAGGGCAUCUCUGAGAGAAAUGCU [U91C C146U], the self-cleavage was 0.53.

As to UACGUAGGUGGUUUUCCCCUGAUAGUGCUAAGGGGGCCUGGAAGUUUGGACUGGGCAGAGCUCAACACAGCGUGGCAAAGUGGCUGUGGCCAGACUGCCUUUCUGGAUUCCUCGUCACUCAGCAGGGCAUCUCUGAGAGAAAUGCC [U91C C101U], the self-cleavage was determined as 0.69.

In the case of UACGUAGGUGGUUUUCCCCUGAUAGUGCUAAGGGGGCCUGGAAGUUUGGACUGGGCAGAGCUCAACACAGCGUGGCAAAGUGGCUGUGGCCAGACUGACUCUCUGGAUUCCUCGUCACUCAGCAGGGCAUCUCUGAGAGAAAUGCC [U91C C98A], the self-cleavage was 0.06.

For the variant UACGUAGGUGGUUUUCCCCUGAUAGUGCUAAGGGGGCCUGGAAGUUUGGACUGGGCAGAGCUCAACACAGCGUGGCAAAGUGGCUGUGGCCAGACUGCCUCUCUGGAUUCCUCGUCACUCAGCAGGGCAUCUCUGAGAGAAAUGUC [U91C C145U], the self-cleavage turned out to be 0.43.

UACGUAGGUGGUUUUCCCCUGAUAGUGCUAAGGGGGCCUGGAAGUUUGGACUGGGCAGAGCUCAACACAGCGUGGCAAAGUGGCUGUGGCCAGUCUGCCUCUCUGGAUUCCUCGUCACUCAGCAGGGCAUCUCUGAGAGAAAUGCC [U91C A94U]: the self-cleavage was found to be 0.2.

Take UACGUAGGUGGUUUUCCCCUGAUAGUGCUAAGGGGGCCUGGAAGUUUGGACUGGGCAGAGCUCAACACAGCGUGGCAAAGUGGCUGUGGCCAGGCUGCCUCUCUGGAUUCCUCGUCACUCAGCAGGGCAUCUCUGAGAGAAAUGCC [U91C A94G]: the self-cleavage was found to be 0.15.

Consider UACGUAGGUGGUUUUCCCCUGAUAGUGCUAAGGGGGCCUGGAAGUUUGGACUGGGCAGAGCUCAACACAGCGUGGCAAAGUGGCUGUGGCCAGACUGCCUCUCUGGAUUCCUCGUCACUCAGCAGGGCAUCUCUGAGAGAAGUGCC [U91C A142G], for which the self-cleavage is 0.73.

On to UACGUAGGUGGUUUUCCCCUGAUAGUGCUAAGGGGGCCUGGAAGUUUGGACUGGGCAGAGCUCAACACAGCGUGGCAAAGUGGCUGUGGCCAGACUGCCUCUCUGGAUUCCUCGUCACUCAGCAGGGCAUCUCUGAAAGAAAUGCC [U91C G137A], for which the self-cleavage stood at 1.14.

Take UACGUAGGUGGUUUUCCCCUGAUAGUGCUAAGGGGGCCUGGAAGUUUGGACUGGGCAGAGCUCAACACAGCGUGGCAAAGUGGCUGUGGCCAGACUGCCUCUCUGGAUUCCUCGUCACUAAGCAGGGCAUCUCUGAGAGAAAUGCC [U91C C120A]: the self-cleavage was found to be 0.74.

On to UACGUAGGUGGUUUUCCCCUGAUAGUGCUAAGGGGGCCUGGAAGUUUGGACUGGGCAGAGCUCAACACAGCGUGGCAAAGUGGCUGUGGCCAGACUACCUCUCUGGAUUCCUCGUCACUCAGCAGGGCAUCUCUGAGAGAAAUGCC [U91C G97A], for which the self-cleavage worked out at 0.05.

Regarding UACGUAGGUGGUUUUCCCCUGAUAGUGCUAAGGGGGCCUGGAAGUUUGGACUGGGCAGAGCUCAACACAGCGUGGCAAAGUGGCUGUGGCCAGACUGCCUCUCUGGAUUGCUCGUCACUCAGCAGGGCAUCUCUGAGAGAAAUGCC [U91C C110G], the self-cleavage is 0.58.

Regarding UACGUAGGUGGUUUUCCCCUGAUAGUGCUAAGGGGGCCUGGAAGUUUGGACUGGGCAGAGCUCAACACAGCGUGGCAAAGUGGCUGUGGCCAGACUGCCUCUCUGGAUUCCUCGUCACUCAGCAGGGCUUCUCUGAGAGAAAUGCC [U91C A129U], the self-cleavage came to 0.82.

For UACGUAGGUGGUUUUCCCCUGAUAGUGCUAAGGGGGCCUGGAAGUUUGGACUGGGCAGAGCUCAACACAGCGUGGCAAAGUGGCUGUGGCCUGACUGCCUCUCUGGAUUCCUCGUCACUCAGCAGGGCAUCUCUGAGAGAAAUGCC [U91C A92U], the self-cleavage was determined as 0.23.

Regarding UACGUAGGUGGUUUUCCCCUGAUAGUGCUAAGGGGGCCUGGAAGUUUGGACUGGGCAGAGCUCAACACAGCGUGGCAAAGUGGCUGUGGCCGGACUGCCUCUCUGGAUUCCUCGUCACUCAGCAGGGCAUCUCUGAGAGAAAUGCC [U91C A92G], the self-cleavage was 0.1.

As for UACGUAGGUGGUUUUCCCCUGAUAGUGCUAAGGGGGCCUGGAAGUUUGGACUGGGCAGAGCUCAACACAGCGUGGCAAAGUGGCUGUGGCAAGACUGCCUCUCUGGAUUCCCCGUCACUCAGCAGGGCAUCUCUGAGAGAAAUGCC [U91A U112C], the self-cleavage stood at 0.58.

Regarding UACGUAGGUGGUUUUCCCCUGAUAGUGCUAAGGGGGCCUGGAAGUUUGGACUGGGCAGAGCUCAACACAGCGUGGCAAAGUGGCUGUGGCCAGACUGCUUCUCUGGAUUCCUCGUCACUCAGCAGGGCAUCUCUGAGAGAAAUGCC [U91C C99U], the self-cleavage worked out at 0.12.

Regarding UACGUAGGUGGUUUUCCCCUGAUAGUGCUAAGGGGGCCUGGAAGUUUGGACUGGGCAGAGCUCAACACAGCGUGGCAAAGUGGCUGUGGCCAGACUGCCUCUCUGGAUUCCUCGUCAUUCAGCAGGGCAUCUCUGAGAGAAAUGCC [U91C C118U], the self-cleavage came out at 0.67.

With UACGUAGGUGGUUUUCCCCUGAUAGUGCUAAGGGGGCCUGGAAGUUUGGACUGGGCAGAGCUCAACACAGCGUGGCAAAGUGGCUGUGGCAAGACUGCCUCUCUGGAUUCCUCGUCACUCAGCAGGGCAUCUCCGAGAGAAAUGCC [U91A U134C], the self-cleavage is 0.45.

As to UACGUAGGUGGUUUUCCCCUGAUAGUGCUAAGGGGGCCUGGAAGUUUGGACUGGGCAGAGCUCAACACAGCGUGGCAAAGUGGCUGUGGCAAGACUGCCUCUCUGGAUUCCUCGUCACUCAGCAGGGCAUCUCAGAGAGAAAUGCC [U91A U134A], the self-cleavage amounted to 0.18.

Regarding UACGUAGGUGGUUUUCCCCUGAUAGUGCUAAGGGGGCCUGGAAGUUUGGACUGGGCAGAGCUCAACACAGCGUGGCAAAGUGGCUGUGGCAAGACUGCCUCUCUGGACUCCUCGUCACUCAGCAGGGCAUCUCUGAGAGAAAUGCC [U91A U108C], the self-cleavage worked out at 0.73.

For the variant UACGUAGGUGGUUUUCCCCUGAUAGUGCUAAGGGGGCCUGGAAGUUUGGACUGGGCAGAGCUCAACACAGCGUGGCAAAGUGGCUGUGGCAAGACUGCCUCUCAGGAUUCCUCGUCACUCAGCAGGGCAUCUCUGAGAGAAAUGCC [U91A U104A], the self-cleavage amounted to 0.46.

With UACGUAGGUGGUUUUCCCCUGAUAGUGCUAAGGGGGCCUGGAAGUUUGGACUGGGCAGAGCUCAACACAGCGUGGCAAAGUGGCUGUGGCCAGACUGCCUCUCUGGAUUCCUCGUCACUCAGCAGGGCAUCUCUGAGAGCAAUGCC [U91C A140C], the self-cleavage worked out at 0.38.

UACGUAGGUGGUUUUCCCCUGAUAGUGCUAAGGGGGCCUGGAAGUUUGGACUGGGCAGAGCUCAACACAGCGUGGCAAAGUGGCUGUGGCCAGACUGCCUCUCUGGAUUCCUCGUCACUCAGCAGGGCAUCUCUGAGGGAAAUGCC [U91C A138G]: the self-cleavage was found to be 1.98.

As for UACGUAGGUGGUUUUCCCCUGAUAGUGCUAAGGGGGCCUGGAAGUUUGGACUGGGCAGAGCUCAACACAGCGUGGCAAAGUGGCUGUGGCCAGACUGCCUCUCUGGAUUCCUCGUCACUCAGCAGGGCAUCUCUGAGAGAAAUACC [U91C G144A], the self-cleavage amounted to 0.47.

Turning to UACGUAGGUGGUUUUCCCCUGAUAGUGCUAAGGGGGCCUGGAAGUUUGGACUGGGCAGAGCUCAACACAGCGUGGCAAAGUGGCUGUGGCCAGACUGCCUCUCUGGAUUCCUCGUCACUCAGCAAGGCAUCUCUGAGAGAAAUGCC [U91C G125A], the self-cleavage worked out at 0.32.

Consider UACGUAGGUGGUUUUCCCCUGAUAGUGCUAAGGGGGCCUGGAAGUUUGGACUGGGCAGAGCUCAACACAGCGUGGCAAAGUGGCUGUGGCCAGACUGCCUCUCUGGAUUCCUCGUCCCUCAGCAGGGCAUCUCUGAGAGAAAUGCC [U91C A117C], for which the self-cleavage amounted to 1.24.

UACGUAGGUGGUUUUCCCCUGAUAGUGCUAAGGGGGCCUGGAAGUUUGGACUGGGCAGAGCUCAACACAGCGUGGCAAAGUGGCUGUGGCCAGACUGCCUCUCUGGAUUCCUCGUCACUCAGCCGGGCAUCUCUGAGAGAAAUGCC [U91C A124C]: the self-cleavage amounted to 0.69.

Consider UACGUAGGUGGUUUUCCCCUGAUAGUGCUAAGGGGGCCUGGAAGUUUGGACUGGGCAGAGCUCAACACAGCGUGGCAAAGUGGCUGUGGCCAGACAGCCUCUCUGGAUUCCUCGUCACUCAGCAGGGCAUCUCUGAGAGAAAUGCC [U91C U96A], for which the self-cleavage was determined as 0.08.
